Test results from patent US20090149339A1 (published 2009).
Ends that are not written are not given here. * marks the point of attachment. Biotin = O=C1N[C@H]2[C@H](CS[C@H]2CCCCC(=O)*)N1

Legend:
[1] = molecular target: T1, GST-41.8 kD PDZ domain fusion protein (hypothetical 41.8 kD protein AA4-85; PDZ domain 1 of 1) (UniProt P08515 1-218 = GST); assay: A assay
T1 construct: also called hypoth

[2] = molecular target: T2, GST-CASK PDZ domain fusion protein (CASK AA495-584; PDZ domain 1 of 1) (mouse, UniProt P08515 1-218 = GST); assay: A/G assays
T2 construct: also called mCASK

[3] = molecular target: GST-LIM PDZ domain fusion protein (Human LIM protein AA29-112; PDZ domain 1 of 1) (human, UniProt P08515 1-218 = GST); assay: A/G assays
[4] = molecular target: GST-LIMK2 PDZ domain fusion protein (human LIM domain kinase 2 AA185-275; PDZ domain 1 of 1) (human, UniProt P08515 1-218 = GST); assay: A/G assays
[5] = molecular target: T3, GST-MPP2 PDZ domain fusion protein (maguk p55 subfamily member 2 (DLG2) AA185-273; PDZ domain 1 of 1) (UniProt P08515 1-218 = GST); assay: A/G assays
T3 construct: also called MMP2

[6] = molecular target: GST-NOS1 PDZ domain fusion protein (human neuronal nitric oxide synthase; PDZ domain 1 of 1) (human, UniProt P08515 1-218 = GST); assay: A/G assays
[7] = molecular target: GST-AF6 PDZ domain fusion protein (af-6 protein AA985-1077; PDZ domain 1 of 1) (UniProt P08515 1-218 = GST); assay: A/G assays
[8] = molecular target: GST-PTN-4 PDZ domain fusion protein (protein-tyrosine phosphatase meg1 AA774-862; PDZ domain 1 of 1) (UniProt P08515 1-218 = GST); assay: A/G assays
[9] = molecular target: GST-prIL16 PDZ domain fusion protein (putative interleukin 16 precursor AA170-383; PDZ domains 1-2 of 2) (UniProt P08515 1-218 = GST); assay: A/G assays
[10] = molecular target: T4, GST-KIAA0559 PDZ domain fusion protein (KIAA0559 AA766-870; PDZ1 of 1) (UniProt P08515 1-218 = GST); assay: A/G assays
T4 construct: also called K559

[11] = molecular target: GST-MPP1 PDZ domain fusion protein (55 Kd erythrocyte membrane protein AA101-186; PDZ domain 1 of 1) (UniProt P08515 1-218 = GST); assay: A/G assays
[12] = molecular target: T5, GST-RGS12 PDZ domain fusion protein (human regulator of G-protein signalling 12 AA35-103; PDZ domain 1 of 1) (human, UniProt P08515 1-218 = GST); assay: A/G assays
T5 construct: also called RSG12

[13] = molecular target: T6, GST-KIAA0316 PDZ domain fusion protein (KIAA0316 AA197-284; PDZ domain 1 of 1) (UniProt P08515 1-218 = GST); assay: A/G assays
T6 construct: also called K316

[14] = molecular target: GST-DVL1 PDZ domain fusion protein (human dishevelled segment polarity protein homolog AA248-340); PDZ domain … (human, UniProt P08515 1-218 = GST); assay: A/G assays
[15] = molecular target: T7, GST-TAX40 PDZ domain fusion protein (human tax interaction protein 40 AA35-137; PDZ domain 1 of 1) (human, UniProt P08515 1-218 = GST); assay: A/G assays
T7 construct: also called TX 40

[16] = molecular target: GST-TIAM1 PDZ domain fusion protein (T-lymphoma invasion and metastasis inducing protein 1 AA1001-1088); PDZ 1 … (UniProt P08515 1-218 = GST); assay: A/G assays
[17] = molecular target: T8, GST-KIAA0303 PDZ domain fusion protein (KIAA0303 AA652-742; PDZ domain 1 of 1) (UniProt P08515 1-218 = GST); assay: A/G assays
T8 construct: also called K303

[18] = molecular target: T9, GST-CBP PDZ domain fusion protein (Cytohesin binding protein HE AA85-175; PDZ domain 1 of 1) (UniProt P08515 1-218 = GST); assay: A/G assays
T9 construct: also called Prot

[19] = molecular target: GST-MINT3 PDZ domain fusion protein (human MINT3 AA11-52; PDZ domain 1 of 1) (human, UniProt P08515 1-218 = GST); assay: A/G assays
[20] = molecular target: T10, GST-TAX2 PDZ domain fusion protein (human tax interaction protein 2 AA54-140; PDZ domain 1 of 1) (human, UniProt P08515 1-218 = GST); assay: A/G assays
T10 construct: also called TX 2

[21] = molecular target: T11, GST-PSD95 PDZ domain fusion protein (human post-synaptic density protein 95 AA387-724; PDZ domains 1-3 of 3) (human, UniProt P08515 1-218 = GST); assay: A/G assays
[22] = molecular target: T12, GST-NeDLG PDZ domain fusion protein (presynaptic protein sao102, neuroendocrine-dlg; PDZ domains 1-2 of 3) (UniProt P08515 1-218 = GST); assay: A/G assays
T12 construct: also called NeDLG1

[23] = molecular target: T13, GST-TAX33 PDZ domain fusion protein (tax interaction protein 33 AA73-162; PDZ domain 1 of 1) (UniProt P08515 1-218 = GST); assay: A/G assays
T13 construct: also called TX33

[24] = molecular target: T14, GST-SYN1a PDZ domain fusion protein (alpha1-syntrophin AA96-189; PDZ domain 1 of 1) (UniProt P08515 1-218 = GST); assay: A/G assays
T14 construct: also called SYN 1 alpha; SYNTR 1 alpha

[25] = molecular target: T15, GST-TAX43 PDZ domain fusion protein (human tax interaction protein 43 AA15-85; PDZ domain 1 of 1) (human, UniProt P08515 1-218 = GST); assay: A/G assays
T15 construct: also called TX 43

[26] = molecular target: T1, GST-41.8 kD PDZ domain fusion protein …; assay: A and G assays
[27] = molecular target: T12, GST-NeDLG PDZ domain fusion protein …; assay: G assay
[28] = molecular target: T1, GST-41.8 kD PDZ domain fusion protein …; assay: A/G assays
[29] = molecular target: T11, GST-PSD95 PDZ domain fusion protein …; assay: A and G assays

Chain of GST-prIL16 PDZ domain fusion protein (putative interleukin 16 precursor AA170-383; PDZ domains 1-2 of 2) (P08515 1-218, tags or fused parts left off): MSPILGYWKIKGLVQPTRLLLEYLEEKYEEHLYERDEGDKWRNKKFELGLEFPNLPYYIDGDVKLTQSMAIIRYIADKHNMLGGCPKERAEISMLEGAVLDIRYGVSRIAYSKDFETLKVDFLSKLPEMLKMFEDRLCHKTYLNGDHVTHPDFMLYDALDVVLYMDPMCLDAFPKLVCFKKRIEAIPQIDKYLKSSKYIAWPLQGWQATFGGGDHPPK
T1 sequence (P08515 1-218, tags or fused parts left off): as above
T11 sequence (P08515 1-218, tags or fused parts left off): as above
T4 sequence (P08515 1-218, tags or fused parts left off): as above
Chain of GST-MPP1 PDZ domain fusion protein (55 Kd erythrocyte membrane protein AA101-186; PDZ domain 1 of 1) (P08515 1-218, tags or fused parts left off): as above
Chain of GST-LIM PDZ domain fusion protein (Human LIM protein AA29-112; PDZ domain 1 of 1) (P08515 1-218, tags or fused parts left off): as above
Chain of GST-TIAM1 PDZ domain fusion protein (T-lymphoma invasion and metastasis inducing protein 1 AA1001-1088); PDZ 1 … (P08515 1-218, tags or fused parts left off): as above
T15 sequence (P08515 1-218, tags or fused parts left off): as above
T14 sequence (P08515 1-218, tags or fused parts left off): as above
T9 sequence (P08515 1-218, tags or fused parts left off): as above
T5 sequence (P08515 1-218, tags or fused parts left off): as above
T13 sequence (P08515 1-218, tags or fused parts left off): as above
T8 sequence (P08515 1-218, tags or fused parts left off): as above
Chain of GST-AF6 PDZ domain fusion protein (af-6 protein AA985-1077; PDZ domain 1 of 1) (P08515 1-218, tags or fused parts left off): as above
T12 sequence (P08515 1-218, tags or fused parts left off): as above
Chain of GST-PTN-4 PDZ domain fusion protein (protein-tyrosine phosphatase meg1 AA774-862; PDZ domain 1 of 1) (P08515 1-218, tags or fused parts left off): as above
Chain of GST-LIMK2 PDZ domain fusion protein (human LIM domain kinase 2 AA185-275; PDZ domain 1 of 1) (P08515 1-218, tags or fused parts left off): as above
T10 sequence (P08515 1-218, tags or fused parts left off): as above
Chain of GST-NOS1 PDZ domain fusion protein (human neuronal nitric oxide synthase; PDZ domain 1 of 1) (P08515 1-218, tags or fused parts left off): as above
Chain of GST-MINT3 PDZ domain fusion protein (human MINT3 AA11-52; PDZ domain 1 of 1) (P08515 1-218, tags or fused parts left off): as above
Chain of GST-DVL1 PDZ domain fusion protein (human dishevelled segment polarity protein homolog AA248-340); PDZ domain … (P08515 1-218, tags or fused parts left off): as above

Biotin-SPQPDSTDNDDYDDISAA [CD6 C-terminal PL peptide AA6L, biotinylated]
binding result [1]: binds | binding result [2]: no binding | binding result [3]: no binding | binding result [4]: no binding | binding result [5]: no binding | binding result [6]: no binding | binding result [7]: no binding | binding result [8]: no binding | binding result [9]: no binding | binding result [10]: no binding | binding result [11]: no binding | binding result [12]: no binding | binding result [13]: no binding | binding result [14]: no binding | binding result [15]: no binding | binding result [16]: no binding | binding result [17]: no binding | binding result [18]: no binding | binding result [19]: no binding | binding result [20]: no binding | binding result [21]: no binding | binding result [22]: no binding | binding result [23]: no binding | binding result [24]: no binding | binding result [25]: no binding

Biotin-PYGTAMEKAQLKPPATSDA [CD49E (alpha-4) C-terminal PL peptide AA11L, biotinylated]
binding result [2]: no binding | binding result [3]: no binding | binding result [4]: no binding | binding result [5]: no binding | binding result [6]: no binding | binding result [7]: no binding | binding result [8]: no binding | binding result [9]: no binding | binding result [10]: no binding | binding result [11]: no binding | binding result [12]: no binding | binding result [13]: no binding | binding result [14]: no binding | binding result [15]: no binding | binding result [16]: no binding | binding result [17]: no binding | binding result [18]: no binding | binding result [19]: no binding | binding result [20]: no binding | binding result [21]: no binding | binding result [22]: no binding | binding result [23]: no binding | binding result [24]: no binding | binding result [25]: no binding | binding result [26]: binds

Biotin-TSGTGHNQTRALRASESGI [CD97 (CD55L) C-terminal PL peptide AA14L, biotinylated]
binding result [1]: binds | binding result [2]: no binding | binding result [3]: no binding | binding result [4]: no binding | binding result [5]: no binding | binding result [6]: no binding | binding result [7]: no binding | binding result [8]: no binding | binding result [9]: no binding | binding result [10]: no binding | binding result [11]: no binding | binding result [12]: no binding | binding result [13]: no binding | binding result [14]: no binding | binding result [15]: no binding | binding result [16]: no binding | binding result [17]: no binding | binding result [18]: no binding | binding result [19]: no binding | binding result [20]: no binding | binding result [21]: no binding | binding result [22]: no binding | binding result [23]: no binding | binding result [24]: no binding | binding result [25]: no binding

Biotin-KKGTYLTDETHREVKFTSL [CD46 (form 1) C-terminal PL peptide AA10L, biotinylated]
binding result [27]: binds | binding result [2]: no binding | binding result [3]: no binding | binding result [4]: no binding | binding result [5]: no binding | binding result [6]: no binding | binding result [7]: no binding | binding result [8]: no binding | binding result [9]: no binding | binding result [28]: no binding | binding result [10]: no binding | binding result [11]: no binding | binding result [12]: no binding | binding result [13]: no binding | binding result [14]: no binding | binding result [15]: no binding | binding result [16]: no binding | binding result [17]: no binding | binding result [18]: no binding | binding result [19]: no binding | binding result [20]: no binding | binding result [23]: no binding | binding result [24]: no binding | binding result [25]: no binding | binding result [29]: binds

Biotin-PSWRRSSLSESENATSLTTF [BLR-1 C-terminal PL peptide AA45L, biotinylated]
binding result [2]: no binding | binding result [3]: no binding | binding result [4]: no binding | binding result [5]: no binding | binding result [6]: no binding | binding result [7]: no binding | binding result [8]: no binding | binding result [9]: no binding | binding result [28]: no binding | binding result [10]: no binding | binding result [11]: no binding | binding result [12]: no binding | binding result [13]: no binding | binding result [14]: no binding | binding result [15]: no binding | binding result [16]: no binding | binding result [17]: no binding | binding result [18]: no binding | binding result [19]: no binding | binding result [20]: no binding | binding result [21]: no binding | binding result [22]: no binding | binding result [23]: no binding | binding result [24]: no binding | binding result [25]: no binding
